Targets include 6B11; 17G10; 12D9.
What all share (test): ELISA

B1: mouse ENO1 (receptor)
chain: MSILRIHAREIFDSRGNPTVEVDLYTAKGLFRAAVPSGASTGIYEALELRDNDKTRFMGKGVSQAVEHINKTIAPALVSKKVNVVEQEKIDKLMIEMDGTENKSKFGANAILGVSLAVCKAGAVEKGVPLYRHIADLAGNPEVILPVPAFNVINGGSHAGNKLAMQEFMILPVGASSFREAMRIGAEVYHNLKNVIKEKYGKDATNVGDEGGFAPNILENKEALELLKTAIAKAGYTDQVVIGMDVAASEFYRSGKYDLDFKSPDDPSRYITPDQLADLYKSFVQNYPVVSIEDPFDQDDWGAWQKFTASAGIQVVGDDLTVTNPKRIAKAASEKSCNCLLLKVNQIGSVTESLQACKLAQSNGWGVMVSHRSGETEDTFIADLVVGLCTGQIKTGAPCRSERLAKYNQILRIEEELGSKAKFAGRSFRNPLAK
B1: the Kd (commonly the constant that tells how readily two partners part at equilibrium) with 6B11 turned out to be 3.04 nM; with 17G10, 33.9 nM; with 12D9 it was 0.39 nM.

The record behind these values is US20150175710A1 (published 2015).
